Measurements from patent US20130225478A1 (YEDA RESEARCH AND DEVELOPMENT, published 2013).
Each block holds one binder with its values, some of them ahead of it. Ends that are not written are not given here.

Key:
mTLR1 TM N′ = target: T1, mTLR1 TM N′ (mouse, N-terminal fluorescein (FRET donor) or N-terminal rhodamine (TAMRA) label, depending on the assay; synthesized on Rink amide MBHA resin); assay: FRET in PC:Cholesterol LUVs, fluorescein-mTLR1 TM N′ donor, rhodamine-Cp acceptor (FIG. 3A)
T1 construct: Synthetic peptide; Tested in PC:Cholesterol LUVs or HEPES buffer; also called mTLR1 N′ TM; TLR1 TM N-terminus peptide
T1 peptide: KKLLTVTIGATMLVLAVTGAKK
Text: FIGS. 3A-3C show FRET between mTLR1 TM N′ (SEQ ID NO:77) and other TM peptides. mTLR1 TM N′ peptide labeled with fluorescein (donor) and loaded on PC:Cholesterol LUVs. Changes in the intensity of the emission signal were monitored between 500 to 600 nm, upon the addition of successive amounts of rhodamine labeled mTLR1 TM N′ (SEQ ID NO:77; homodimers, 3B) and mTLR2 TM N′-CtoA (SEQ ID NO:88; heterodimers, 3C). Rhodamine labeled TCRα TM domain peptide (Cp; […]-NH2, SEQ ID NO:123) was used as a negative control (3A).
(§1) Large unilamellar vesicles (LUVs) composed of phosphatidylcholine (PC) and cholesterol (10:1, w/w), were prepared using the extrusion method as described previously (Cohen et al, 2008). The fluorescence experiments were performed with pairs of peptides using fluorescein labeled peptides as donors and rhodamine labeled peptides as acceptors. Fluorescence spectra were obtained at room temperature, with excitation set at 494 nm (10 nm slit) and emission scan at 500-600 nm (10 nm slits), by a Cary eclipse fluorescence spectrophotometer (Varian Inc., Palo Alto, Calif.). […] Fluorescence spectra were obtained before and after the addition of the rhodamine labeled peptides. Fluorescence values were corrected by subtracting the changes in emission obtained by adding HEPES only. […]

mTLR1 TM C′-CtoA = target: T2, mTLR1 TM C′-CtoA (mouse, N-terminal fluorescein (FRET donor) or N-terminal rhodamine (TAMRA) label, depending on the assay; synthesized on Rink amide MBHA resin); assay: FRET in PC:Cholesterol LUVs, fluorescein-mTLR1 TM C′-CtoA donor, rhodamine-Cp acceptor (FIG. 2A)
T2 construct: Synthetic peptide; Tested in PC:Cholesterol LUVs or HEPES buffer; also called mTLR1 C′ TM (C to A); TLR1 TM C-terminus peptide
T2 peptide: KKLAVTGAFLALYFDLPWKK
Text: FIGS. 2A-2C show fluorescence resonance energy transfer (FRET) between mTLR1 TM C′-CtoA (SEQ ID NO:83) and other TM peptides. mTLR1 TM C′ peptide was labeled with fluorescein (Donor) and loaded on PC:Cholesterol large unilamellar vesicles (LUVs). Changes in the intensity of the emission signal were monitored between 500 to 600 nm, upon the addition of successive amounts of rhodamine labeled mTLR1 TM C′-CtoA (SEQ ID NO:83; homodimers, 2B) and mTLR2 TM C′-CtoA (SEQ ID NO:86; heterodimers, 2C). Rhodamine labeled TCRα TM domain peptide (Cp; […]-NH2, SEQ ID NO:123) was used as a negative control (2A).
as §1

[1] = target: the molecule itself; assay: self-assembly assay, rhodamine dequenching after proteinase K, PC:Cholesterol LUVs (FIG. 7D)
Method: (7A-7B) Rhodamine conjugated TLR peptides mTLR2 TM N′-CtoA (SEQ ID NO:88), mTLR2 TM C′-CtoA (SEQ ID NO:86), mTLR1 TM N′ (SEQ ID NO:77) and mTLR1 TM C′-CtoA (SEQ ID NO:83), were added to HEPES solution and their emission at 585 nm was recorded before and after the addition of proteinase K. The addition of the proteinase K is indicated by a black arrow. mTLR1 TM C′-CtoA (SEQ ID NO:83), mTLR1 TM N′ (SEQ ID NO:77) and mTLR2 TM C′-CtoA (SEQ ID NO:86) are capable to self assemble in solution, to a very slight extent (7A). mTLR2 TM N′-CtoA (SEQ ID NO:88) highly oligomerise in solution (black line, 7B) and is partially dissociated in the presence of LUVs (gray line, 7B). […] LL37 is shown as an example for a peptide that is highly oligomerised in liposomes (7D).
We have tested this characteristic, both in solution and on a membrane interface. We measured the initial emission of rhodamine labeled peptides at 580 nm in solution only, or in a solution containing PC:Cholesterol LUVs, and then followed the increase of the emission over time after the addition of protease-K to the medium. […] The known oligomeric antimicrobial peptide LL37 (Rosenfeld et al., 2006a) was used as a positive control.

- binding result (mTLR1 TM N′): no binding
- binding result (mTLR1 TM C′-CtoA): no binding
B1: Cp, the core TM peptide of TCRα (peptide)
peptide: GLRILLLKV-NH2
modifications: also: rhodamine label
notes: Negative control in the FRET experiments; also called TCRα TM domain peptide

B2: LL37 (peptide, UniProt P49913 134-170, looked up)
peptide: LLGDFFRKSKEKIGKEFKRIVQRIKDFLRNLVPRTES
modifications: also: rhodamine label
notes: Positive control of the self-assembly assay; LL-37 is the C-terminal 37 residues of the cathelicidin precursor; also called oligomeric antimicrobial peptide LL37
- binding result [1]: binds
